The record followed here is patent EP2467164A2 (dated 2012).

One assay has as its target T1, ErbB1 on AdrR cells (UniProt P00533 25-1210, limits assumed).
T1 construct: whole, on cells; also called EGFR; ErbBl
Put plainly: flow cytometry, biotinylated BTC (Figure 15). In general terms: In flow cytometry, cells or beads pass a laser one at a time.

The target in assay [1] is T2, ErbB3 expressed on MALME-3M melanoma cells (human, UniProt P21860 20-1342).
T2 construct: Endogenous ErbB3 of the MALME-3M cell line; also called ErbB3 on MALME-3M cells
As to the kind of experiment: cell binding assay on MALME-3M cells, flow cytometry, one-site model.

The target of another assay is ErbB3 on AdrR cells (human, UniProt P21860 20-1342). Put plainly: cell-based or functional assay.
The next assay addresses T3, recombinant ErbB3 (human, UniProt P21860 20-643).
T3 construct: also called HER3
Put plainly: surface plasmon resonance, antibody as ligand, recombinant ErbB3 as analyte.

The target of a further assay is T4, ErbB3 (human, UniProt P21860 20-643, limits assumed).
T4 construct: also called ErbB3 domain; HER3
Put plainly: KinExA. (Kinetic exclusion samples the free partner from a solution-phase mixture.)

B1: betacellulin (ligand, UniProt P35070 32-111, looked up)
chain: DGNSTRSPETNGLLCGDPEENCAATTTQSKRKGHFSRCPKQYKHYCIKGRCRFVVAEQTPSCVCDEGYIGARCERVDLFY
modifications: biotinylated in the FACS assay of Example 7 (site not stated)
notes: also called BTC; biotinylated BTC
With B1, the binding result in the assay with ErbB1 on AdrR cells is “binds”.

B2: Ab #6 (antibody, V domains shown)
VH: EVQLLESGGGLVQPGGSLRLSCAASGFTFSHYVMAWVRQAPGKGLEWVSSISSSGGWTLYADSVKGRFTISRDNSKNTLYLQMNSLRAEDTAVYYCTRGLKMATIFDYWGQGTLVTVSS
VL: QSALTQPASVSGSPGQSITISCTGTSSDVGSYNVVSWYQQHPGKAPKLIIYEVSQRPSGVSNRFSGSKSGNTASLTISGLQTEDEADYYCCSYAGSSIFVIFGGGTKVTVL
notes: also called MM-121; anti-ErbB3 antibody Ab #6
Regarding B2, the dissociation constant (Kd) – broadly, the equilibrium constant for the complex coming apart – in assay [1] was roughly 4 nM. In addition, in the assay with ErbB3 on AdrR cells, the “BTC-induced ErbB3 phosphorylation in AdrR cells (IC50)” value came to 5.9 nM and the “HRG-induced ErbB3 phosphorylation in AdrR cells (IC50)” value amounted to 2.4 nM. The Kd with recombinant ErbB3 was roughly 4 nM. In the assay with ErbB3, binding was put at a Kd of 0.769 nM; the off-rate (koff) – broadly, the rate constant with which the complex falls apart – was determined as 0.00011 s⁻¹; the kon (usually the second-order rate constant of association) was 143000 M⁻¹ s⁻¹.

B3: Ab #3 (antibody, V domains shown)
VH: EVQLLESGGGLVQPGGSLRLSCAASGFTFSAYNMRWVRQAPGKGLEWVSVIYPSGGATRYADSVKGRFTISRDNSKNTLYLQMNSLRAEDTAVYYCARGYYYYGMDVWGQGTLVTVSS
VL: QSVLTQPPSASGTPGQRVTISCSGSDSNIGRNYIYWYQQFPGTAPKLLIYRNNQRPSGVPDRISGSKSGTSASLAISGLRSEDEAEYHCGTWDDSLSGPVFGGGTKLTVL
Regarding B3, the Kd was roughly 1.3 nM in assay [1] and roughly 8 nM with recombinant ErbB3.
